According to patent US20110229461A1 (UCB, published 2011):

Key:
[1] = target: T1, human PD-1 (recombinant, titrated in BIAcore) (human, UniProt Q15116 25-170); test: SPR BIAcore 3000; antibody captured by anti-human Fc, human PD-1 titrated;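 note: CM5 chip with amine-coupled goat anti-human Fc F(ab′)₂, HBS-EP running buffer at 10 µL/min, blank-surface-subtracted sensorgrams fitted in BIAevaluation 3.2 for kinetic constants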
T1 construct: extracellular domain; also called recombinant human PD-1 extracellular domain

[2] = target: T2, human PD-1 on cells (transfected HEK293 cells; human T cells) (human, UniProt Q15116 25-288); test: flow cytometry on activated human T cells; unconstrained curve; unconstrained curve
T2 construct: whole, on cells; HEK293 cells transiently transfected with human PD-1 DNA; also called PD-1 expressing HEK293 cells; PD-1 transfected HEK cells

[3] = target: T2, human PD-1 on cells (transfected HEK293 …); test: flow cytometry on activated human T cells; top of curve constrained; top part of curve constrained to ~45 geo mean

T2 sequence (Q15116 25-288): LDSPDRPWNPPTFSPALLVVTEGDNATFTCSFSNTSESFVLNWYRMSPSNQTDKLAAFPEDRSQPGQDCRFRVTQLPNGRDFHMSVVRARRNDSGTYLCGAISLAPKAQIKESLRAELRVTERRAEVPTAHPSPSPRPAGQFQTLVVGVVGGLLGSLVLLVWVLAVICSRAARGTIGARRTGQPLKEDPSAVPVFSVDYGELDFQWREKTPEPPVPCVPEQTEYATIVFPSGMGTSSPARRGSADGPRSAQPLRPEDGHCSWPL
T1 sequence (Q15116 25-170): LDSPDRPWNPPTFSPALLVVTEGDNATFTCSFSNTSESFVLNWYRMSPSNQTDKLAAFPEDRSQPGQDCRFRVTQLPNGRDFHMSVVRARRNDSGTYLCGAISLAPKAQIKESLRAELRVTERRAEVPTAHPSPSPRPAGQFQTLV

B1: 949 chimeric (949 variable regions with human IgG4 constant domains) (antibody, V domains shown)
VH: QVQLQQSGAELVKPGASVKMSCKAFGYTFTTYPIEWMKQNHGKSLEWIGNFHPYNDDTKYNEKFKGKAKLTVEKSSTTVYLELSRLTSDDSAVYYCARENYGSHGGFVYWGQGTLVTVS
VL: ENVLTQSPAIMSASPGEKVTMTCRASSSVISSYLHWYQQKSGASPKLWIYSTSNLASGVPDRFSGSGSGTSYSLTISSVEAEDAATYYCQQYNGYPLTFGAGTKLEIK
notes: also called original CA949 construct, cLcH
A Kd [1] of 5.98 nM, an EC50 [2] of 1.2 µg/mL and an EC50 [3] of 3.61 µg/mL were found for B1 in this work.
